Results taken from the nanobody polyreactivity screen of Harvey et al. (2022).

Test: yeast display, Sf9 membrane polyspecificity reagent, FACS + sequencing; frameworks hold sequencing errors
How it was run: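 Synthetic nanobody libraries on Saccharomyces cerevisiae BJ5465 were galactose-induced for 36–48 hours, stained 1 hour at 4 °C with 10% biotinylated, detergent-solubilized Sf9 membrane reagent and enriched on streptavidin microbeads. FACS then separated cells into low and high (top ~1%) gates by anti-HA (expression) and streptavidin (reagent binding) fluorescence. Genes were colony-PCR amplified, MiSeq 2 × 250 sequenced and CDR-length filtered. A clone's polyreactivity label is that of its gate of origin.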

Sequence | polyreactivity (PSR sort gate)
QVQLVESGGGLVQAGGSLRLSCAASGLTFSKYAMGWYRQAPGQERELVAAITRGDRTYSADSVKGRFTISRDNAKNTVYLQMNSLKPEDTAVYYCAARQYYWGQGTQVTVSS | high polyreactivity
QVQLVESGGGLVQAGGSLRLALLTPDLPSTINDMGWYRQAPGKERELVAAITRGGSTNYADSVKGRFTISRDNAKNTVYLQMNSLKPEDTAVYYCAAPSAGWRDGGDYWGHGTQVTVSS | low polyreactivity
QVRLVESGGGLVQAGGSLRLSCAASGSIFYFNAMGWYRQAPGKERELVATIRYRGGRTYADSVKGRFTISRDNAKNTVYLQMNSLKPEDTAVYFCNTYARYAYLTGRMDYWGQGTQVTVSS | high polyreactivity
QVQLVESGGGLVQAGGSLRLICDDSGSILSYNTMGWYRQAPGKEREFVAGITYSGSRTYYADSVKGRFTISRDNAKNTVSLQMNSLKPVDTAVYYCAKRNYYRMYWGQGTQVTVSS | high polyreactivity
QVQLVESGGGLVQAGGSLRLSCAASGSTITYYTMGWYRQAPGKERELVAAISGSGGRTYYADSVKGRFTISRDNEKNTVYLQMNSLKPEDTAVYYCAAVYQLSRYDYWGQGTQVTVSS | high polyreactivity
QVQLVESGGGLVQAGGSLRLSCAASGSIFSKNARGWYRQAPGKERELVAAISWSGDRTYYADSVKGRFTISRDNAKNTVYLQMNSLKPEDTAVYYCAADYTVKYGYWGQGTQVTVSS | high polyreactivity
QVQLVDSGGGLVQAGGSLRLSCAASGSILLYYTMGWYRPAPGKERELVATMSSSGGSTYYADSVKGRFTISRDNAKNTVYLQMNSLKPEDTAVYYCNADYIYYGTTYEYWGQGTQVTVSS | low polyreactivity
QVQLVESGGGLVQAGGSLRLSCAASGNTFADYAMGWYSQAPGKERELVADLTFSGGGTYYADSVKGRFTISRDNAKNTVYLQMNSLKPEDTPVYDCNADLDSYVGDEYDHWGQGTQVTVSS | low polyreactivity
QDQLGDSGGCLVQAGGSLRLSCAASGITFKNYAMVWYRQAPGKEREIVAAISASGGRTYYADSVKGRFTISRDNAKNTVYFPMNSLIPEDTAVYYCNAVYIGSRSRYEYDYWGQGSQVTVSS | high polyreactivity
QVQLVESGGGLVQAGGSLRLSCDASGRIFSRYAIGWYRQAPGKERELVAAITQSGTSTYYADSVKGRFTISRDNAKNTVYLQMNSLNPEDTAVYYCNAYRQYRYDYWGQGTQVTVSS | low polyreactivity
QGQLVESGGGLVQAGGSLRLSCAASGRTFQYYAMGWYRQATGKERELVAAITTVGSTKYADSVKGRFTISRDNAKNTVYLQMNSVKPEDTAVYYCAAGYRTRSGHRVPYSDYSWGQGTQVTVSS | high polyreactivity
QVQLVESGGGLVQAGGSLRLSCAASGSNFTQYAMGWYRQAPGTERELVAAISSGTRTYYADSVKGRFTISRDNAKNTVYVQMNSLKPEDTAVYYCAARYRSYFYWSGYWGHGTQVTVSS | low polyreactivity
QVQLVESGGGLVQAGGSLRLSCAASGFIFSYYAMGGYRQAPGKERELVAAITSGGSTNYADSVKGRLTISRDNAKNTFYLQMNSLKPEDTAVYYCAAERGDTAYLKYDYCGQGTQVTVSS | low polyreactivity
QVQLVESGGGLVQAGGSLRLSCAASGFTFRFNAMGWYRHAPGKERELVAGITSGGTTNYAYSVKGRFTISRDNAKNTVYLHMNSLKPEDTAVYYCNAAWYRWKQRYDYWGQGTLVTVSS | low polyreactivity
QVQHVESGGGLVQAGGSLRLSCAASGSTFYYYAMGWYRQARGKERELVATISRSTARTFYADSVKGRFTISRDNAKITVYLQMNSLKPEDTAVYYCAREYYYRRGFFLRGYWGQGTQVTVSS | high polyreactivity
QVQLVESGGGLVQAGGSLRLSCAASGSIFPIYAMGWYRQATGKERELVAAINSGGGTNYADSVKGRFTISRDNAKNTVYLQMNSLKPEDTAVYYCAKSRYDYTKTEGGYWGQGTQVTVSS | low polyreactivity

Sequence | polyreactivity (PSR sort gate)
QGQLVESGGGLVQAGGSLRLSCAASGSSLPYYAMGSYRQAPGKERELVATITDGTDTYYADSVKARFTISRDNAKNTVFLQMNSLKTDDSAVYYCNAYGYVYFLHEDYWGQGTQVTVSS | low polyreactivity
QVQLVESGGGLVQAGGSLRLSCAASGSTFRKYAMGWYRQAPGKERELVAAISRGGTSTYYADSVKGRFTISRDNAKNTVYLQMNSLKPEDTAVYYCRYFRYSYGTKYDYWGQGTQVTVSS | high polyreactivity
QVQLVESGGGLVQAGGSLRLSCAASGNTFAAYAMGWYRQAPGKEWELVAAITTSGGITYYADSVKGRFTISRDNAKNTVYLQMNSLKPEDTAVYYCAVDGGRWGQGTQVTVSS | low polyreactivity
QVQLVDSGGGLVQAGGSLRLIFAASGITQPYYAMGWYRQAPGKERELVAGISSRGGSTYYADSVKGRFTISRDNAKNTVYLQMNSLIPEDTAVYYCAAKVASTRLGPAYGYWGQGTQVTLSS | high polyreactivity
QVQLVESGGGLVQAGGSLRLSCAASGRTFAYNAKGWYRQPPGKERELVASITVGGGSTYYADSVKGRFTISRDNAKNTVYLQMNSLKPEDTAVYYCAARVPSWKYDYWGQGTQVTVSS | high polyreactivity
QVQLVESGGGLVQAGGSLRLSCAASGRIFAYYAMGWYRQAPGTERELVALISSTGGSTYYADSVKGRFTISRDNAKNTVYLQMNSLKPEDTAVYYCNKQVTGAERFQGHGAYYWGQGTQVTVSS | high polyreactivity
QVQLVESGGGLVQAGGSLRLSCAASGGTFEYNAMGWYRQAPGKERELVAAISKSGGRTYYADSVKGRFTISRDNAKNTVYLQMNSLKPEDTAVYYCAKRYVWGQGTQVTVSS | high polyreactivity
QVQLVESGGGLVQAGGSLRLSCAASGSTFHYYARGWYRQAPGKERELVAAISQSGSGTYYADSVKGRFTISRDYAKNTVYLQMNSLKPEDTAVYYCAKDITGLSRYRRDYWGQGTQVTVSS | low polyreactivity
QVQLVESGGGLVQAGGSLRLSCAASGRTIVYYAMGRYRQAPGKERELVAAISSSGSTYYADSVKGRFTISRDNAKNTVYLQMNSLKPEDTAVYYCATTHDYWLWGMGYWGQGTQVTVSS | high polyreactivity
QVQLVESGGGLVQAGGSLRLSCAASGSNFKSYAKGWYRQAPGKERELVAAITYRGGSTYYADSVKGRFTISRDNAKNTVSLQMNSLKPEDTAVYYCAADYQSVGGAEYDYWGQGTQVTVSS | high polyreactivity
QVQLVESGGGLVQAGGSLRLSCAASGSTFGYNTMGWYRQAPGKERELVASITGRGGSTYYADSVKGRFTSSRDNAKNTVYLQMNSLKPEDTAVYYCAAAWKAYRRYGYWGQGTQVTVSS | high polyreactivity
QVQHVESGGGLVQAGGSLRLSCAASGSIFVWYAMGWYRQAHGKERELVAAINWSGGRTYYADSVKGRFTISRDNAKNTVYLQMNSLKPEDTAVYYCAAELRRSDTYNYWGQGTQVTVSS | high polyreactivity
QVQLVESGGGLVQAGGSLRLSCAASGFTFRGYAMGWYRQAPGKERELVAAISRGGNTKYADSVKGRFTISRDNAKNTVYLQMNSLKPEDTAVYYCASYYFSSSHRYGYWGQGTQVTVSS | high polyreactivity
QVQLVESGRGLVQAGGSLRLSCDASGFIFPWYAMGWYRQAPGKERELVAAITSGGSTTYADSVKGRFTISRDNAKNTVYLQMNSLKPEDTAVYYCAAAYPWGDYGVSDYDYWGQGTQVTVSS | high polyreactivity
QVQLVESGGGLVQAGGSLRLSCAASGLTFQWYAMGWYRQAPGKERELVAAISIGGSTNYADSVKGRFTISRDNAKNTVYLQMNSLKPEDTAVYYCNKGSDFFWYDYDYWGQGTQVTVSS | low polyreactivity
QLQLVESGGGLVQAGGSLRLSCADSGSTFRYNVMGWYRQAPGNETQLVAAIRDSGDRTYYADSVKGRFTISRDNAKNTVYLQMNSLKPEDTAVYYCNARWQEPLKYDYWGQGTQVTVSS | low polyreactivity
